Tests used:
recombinant MSTN = target: T1, recombinant MSTN (UniProt O14793 267-375); assay: cell-based or functional assay
T1 sequence (looked up): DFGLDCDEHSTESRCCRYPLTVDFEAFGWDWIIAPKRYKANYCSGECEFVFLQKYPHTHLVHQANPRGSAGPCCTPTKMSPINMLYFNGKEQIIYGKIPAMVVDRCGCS

recombinant GDF11 = target: T2, recombinant GDF11 (UniProt O95390 299-407); assay: cell-based or functional assay
T2 sequence (looked up): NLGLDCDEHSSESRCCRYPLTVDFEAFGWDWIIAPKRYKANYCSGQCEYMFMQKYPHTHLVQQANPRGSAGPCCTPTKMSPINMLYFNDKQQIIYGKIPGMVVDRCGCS

average myotube diameter relative to control, C2C12 myotubes expressing GDF11PRO-Fc (AAV6) treated with 100 ng/ml rMSTN (rMSTN alone: − 35%) (recombinant MSTN): -5.3%
differentiation index relative to untreated control, C2C12 myotubes expressing GDF11PRO-Fc (AAV6) treated with 100 ng/ml rMSTN (rMSTN alone: − 14%) (recombinant MSTN): -3%
average myotube diameter relative to control, C2C12 myotubes expressing GDF11PRO-Fc (AAV6) treated with 100 ng/ml rGDF11 (rGDF11 alone: − 39%) (recombinant GDF11): -1.8%
differentiation index relative to untreated control, C2C12 myotubes expressing GDF11PRO-Fc (AAV6) treated with 100 ng/ml rGDF11 (rGDF11 alone: − 15%) (recombinant GDF11): -1.9%
B1: GDF11 propeptide-Fc (Fc fusion, human, UniProt O95390 25-298, looked up)
chain: AEGPAAAAAAAAAAAAAGVGGERSSRPAPSVAPEPDGCPVCVWRQHSRELRLESIKSQILSKLRLKEAPNISREVVKQLLPKAPPLQQILDLHDFQGDALQPEDFLEEDEYHATTETVISMAQETDPAVQTDGSPLCCHFHFSPKVMFTKVLKAQLWVYLRPVPRPATVYLQILRLKPLTGEGTAGGGGGGRRHIRIRSLKIELHSRSGHWQSIDFKQVLHSWFRQPQSNWGIEINAFDPSGTDLAVTSLGPGAEGLHPFMELRVLENTKRSRR
